To fix the notation:
B1: E. coli MtlR fused with His6-tag (ecHisMtlR), wild type [E. coli] / E. coli histidine phosphocarrier protein HPr (dephosphorylated, untagged) [E. coli] (parent complex)
chain 1: MVDQAQDTLRPNNRLSDMQATMEQTQAFENRVLERLNAGKTVRSFLITAVELLTEAVNLLVLQVFRKDDYAVKYAVEPLLDGDGPLGDLSVRLKLIYGLGVINRQEYEDAELLMALREELNHDGNEYAFTDDEILGPFGELHCVAALPPPPQFEPADSSLYAMQIQRYQQAVRSTMVLSLTELISKISLKKAFQK
chain 2: not shown

Our source for the percent of parent values is paper PMC6763467 (2019).

In the first experiment the parent is B1. The experiment can be described thus: His-tag pull-down (Talon metal affinity chromatography), SDS-PAGE band densitometry; 200 μg His-MtlR, 200 μg HPr; 20 mM Tris-HCl (pH 7.5), 50 mM NaCl, 2 mM β-mercaptoethanol, 5% glycerol; wash 10 mM imidazole, elution 150 mM imidazole.
With chain 1 L112A, the percent of parent was 47%. Still for that read-out and setting: the result for chain 1 L112W reads 95%.

Regarding chain 1 E108S, the percent of parent was determined as 76%. chain 1 A115W: the percent of parent was 45%. The same measure, in the same setting: the result for chain 1 E140S reads 67%.

Another experiment covers variants of B1. The experiment is described as follows: His-tag pull-down (Talon metal affinity resin), SDS-PAGE band densitometry; 200 μg His-MtlR, 200 μg HPr, 20 μl EI-overproducing cell lysate, 2 mM MgCl2, 50 μl Talon resin; no PEP.
With chain 1 E108S, the percent of parent is 65%.

chain 1 E108S, chain 1 E140S: the percent of parent is 35%.

chain 1 E140S: the percent of parent was 68%.
